Numbering of substitutions follows the chain as printed. Names may count otherwise.
B1: MSB0010603 4K21 (4K21 hVH S56V-T62S hVL N28I-H34S-N53R-H93Y) (antibody, V domains shown)
VH: EVQLVESGGGLVQPGGSLRLSCAASGFAFSAYDMSWVRQAPGKRLELVAYISSGGSVFYYPDSVKGRFTISRDNAKNSLYLQMNSLRAEDTAVYYCTRHLGFDYWGQGTLVTVSS
VL: DIVMTQSPLSLPVTPGEPASISCRSSQSLVNSIGNTYLSWYLQKPGQSPQLLIYKVSRRFSGVPDRFSGSGSGTDFTLKISRVEAEDVGVYYCSQSTYVPPTFGQGTKVEIK
B2: MSB0010601 4K21 (4K21 hVH S55K-T62S hVL N28I-H34S-N53R-H93Y) (antibody, V domains shown)
VH: B1 VH with S56K, V57S
VL: B1 VL
B3: MSB0010599 4K21 (4K21 hVH S55R-T62S hVL N28I-H34S-N53R-H93Y) (antibody, V domains shown)
VH: B1 VH with S56R, V57S
VL: B1 VL
B4: MSB0010595 4K21 (4K21 hVH S56V-T62S hVL S27eY-N28I-H34S-N53R-H93Y) (antibody, V domains shown)
VH: B1 VH
VL: B1 VL with S32Y
B5: MSB0010602 4K21 (4K21 hVH S55K-T62S hVL S27eY-N28I-H34S-N53R-H93Y) (antibody, V domains shown)
VH: B1 VH with S56K, V57S
VL: B1 VL with S32Y
B6: MSB0010600 4K21 (4K21 hVH S55R-T62S hVL S27eY-N28I-H34S-N53R-H93Y) (antibody, V domains shown)
VH: B1 VH with S56R, V57S
VL: B1 VL with S32Y

Biological target: recombinant marmoset GM-CSF (Callithrix jacchus) (Callithrix jacchus)
Experiment: cell-based or functional assay

recombinant marmoset GM-CSF (Callithrix jacchus) (Callithrix jacchus), sequence (chain, as listed by the source limits assumed, form in doubt): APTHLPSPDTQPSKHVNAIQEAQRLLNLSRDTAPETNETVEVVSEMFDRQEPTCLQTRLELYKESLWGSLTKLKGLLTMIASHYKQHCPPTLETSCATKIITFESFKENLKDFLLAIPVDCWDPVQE

| IC50, inhibition of marmoset GM-CSF induced TF-1 proliferation (1.9 nM) [nM] | Binder |
| --- | --- |
| 0.7 | B1 |
| 0.7 | B2 |
| 0.9 | B3 |
| 1.5 | B4 |
| 1.3 | B5 |
| 2 | B6 |
